What was measured:
[1] = biological target: ligand binding domain of the glucocorticoid receptor, Atto488-labelled (GR-LBDm-Atto 488); assay: analytical ultracentrifugation; settings: parent: est. 0.77; read off a plot
[2] = biological target: yHsp90 (Saccharomyces cerevisiae) (UniProt P02829); settings: remark: other sources report otherwise

Substance | response (normalized dc/dt) [1] | Kd [2]
human Hsp90β, wild type (from UniProt P08238) K607A | 0.58 | 
human Hsp90β, wild type (from UniProt P08238) K607I | 0.71 | 
human Hsp90β, wild type (from UniProt P08238) K607R | 0.82 | 

Continued, values first:

response (normalized dc/dt) [1] | Kd [2] | Substance
0.37 |  | human Hsp90β, wild type (from UniProt P08238) K607E
 | 45 nM | yHsp90, P02829
